In publication PMC10791742 (Nature Communications, 2024):

What follows are binders tested against T1, myotoxin II from Bothrops asper (Bothrops asper, UniProt P24605) (assay: BLI; […]) biosensors; Fab or IgG at 0, 1, 10 and 100 nM; 600 s association, 600 s dissociation; […]; 1:1 binding model, […]). Conditions: both partners purified.
T1 construct: also called Mt; Lys49 PLA2-like toxin
T1 sequence (P24605 17-137): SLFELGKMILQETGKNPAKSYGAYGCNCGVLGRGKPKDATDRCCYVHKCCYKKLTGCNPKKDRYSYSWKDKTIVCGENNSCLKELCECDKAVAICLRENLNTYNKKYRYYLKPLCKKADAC

Binder | Kd
E02(Fab) (Fab, V domains shown, also called TPL0039_05_E02) VH: QVQLLESGGGLVQPGRSLRLSCAASGFTFSSYGLHWVRQAPGKGLEWVAVISYDGSNKYYADSVKGRFTISRDNSKNTLYLQMNSLRAEDTAVYYCASTLQQLDAFDIWGQGTLVTVSS VL: NFMLTQPHSVSESPGKTVTISCTRSSGSIASNYVQWYQQRPGTSPTIMIYEDNQRPSGVPDRFSGAIDSSSNSASLTISGLKTEDEADYYCQSYDSSSVVFGGGTKVTVL | 2.4 nM
E02(LALA + YTE) human IgG1 (antibody, V domains shown, also called TPL0039_05_E02) VH: QVQLLESGGGLVQPGRSLRLSCAASGFTFSSYGLHWVRQAPGKGLEWVAVISYDGSNKYYADSVKGRFTISRDNSKNTLYLQMNSLRAEDTAVYYCASTLQQLDAFDIWGQGTLVTVSS VL: NFMLTQPHSVSESPGKTVTISCTRSSGSIASNYVQWYQQRPGTSPTIMIYEDNQRPSGVPDRFSGAIDSSSNSASLTISGLKTEDEADYYCQSYDSSSVVFGGGTKVTVL | < 0.001 nM

These binders were tested against T2, myotoxin II from Bothrops asper (Bothrops asper, UniProt P24605) (assay: BLI; […]) biosensors ([…] (0, 1, 10, 100 nM; […]). Conditions: both partners purified.
T2 construct: also called Mt; M2; source: purified from Bothrops asper venom (CM-Sephadex C25, RP-HPLC), biotinylated
T2 sequence (P24605 17-137): as the sequence (P24605 17-137) above

Binder | Kd | koff | kon
TPL0039_05_B12 IgG1 (LALA + YTE) (antibody, V domains shown, also called B12(LALA + YTE); copies: 2 + 2) VH: EVQLVESGGGVVQPGRSLRLSCAASGFTFSSYGMHWVRQAPGKGLEWVAVISYDGSNKYYADSVKGRFTISRDNSKNTLYLQMNSLRAEDTAVYYCAGWTEGDAFDIWGQGTLVTVSS VL: NFMLTQPHSVSESPGKTVTISCTRSSGSIASNYVQWYQQRPGSAPSTVIYEDNRRPSGVPDRFSGSIDSASNSASLTISGLKTEDEADYYCQSYDSSSVVFGGGTKITVL | < 0.001 nM | < 1e-07 s⁻¹ | 685000 M⁻¹ s⁻¹
TPL0039_05_G08 IgG1 (LALA + YTE) (antibody, V domains shown, also called G08(LALA + YTE); copies: 2 + 2) VH: EVQLVESGGGVVQPGRSLRLSCAASGFTFSSYGMHWVRQAPGKGLEWVAVISYDGSNKYYADSVKGRFTISRDNSKNTLYLQMNSLRAEDTAVYYCARTNYDSGDAFDIWGQGTLVTVSS VL: NFMLTQPHSVSESPGKTVTISCTRSSGSIASNYVQWYQQRPGSSPTTVIYEDNQRPSGVPDRFSGSIDSSSNSASLTISGLKTEDEADYYCQSYDSSTVVFGGGTKLTVL | < 0.001 nM | < 1e-07 s⁻¹ | 245000 M⁻¹ s⁻¹
TPL0039_05_E02 IgG1 (LALA + YTE) (antibody, V domains shown, also called E02(LALA + YTE); copies: 2 + 2) VH: QVQLLESGGGLVQPGRSLRLSCAASGFTFSSYGLHWVRQAPGKGLEWVAVISYDGSNKYYADSVKGRFTISRDNSKNTLYLQMNSLRAEDTAVYYCASTLQQLDAFDIWGQGTLVTVSS VL: NFMLTQPHSVSESPGKTVTISCTRSSGSIASNYVQWYQQRPGTSPTIMIYEDNQRPSGVPDRFSGAIDSSSNSASLTISGLKTEDEADYYCQSYDSSSVVFGGGTKVTVL |  | < 1e-07 s⁻¹ | 491000 M⁻¹ s⁻¹
TPL0039_05_A03 IgG1 (LALA + YTE) (antibody, V domains shown, also called A03(LALA + YTE); copies: 2 + 2) VH: QVQLVESGGGLAKPGRSLRLSCAVSGFTFSSYGMHWVRQAPGKGLEWVAVISYDGSNKYYADSVKGRFTISRDNSKNTLYLQMNSLRAEDTAVYYCASTLQQLDAFDIWGQGTMVTVSS VL: NFMLTQPHSVSESPGKTITISCTRSSGSIASNYVQWYQQRPGSVPTPVIYEDDRRPSGVPDRFSGSIDSSSNSASLTISGLKTEDEADYYCQSYDSSSVVFGGGTKITVL | < 0.001 nM | < 1e-07 s⁻¹ | 648000 M⁻¹ s⁻¹
TPL0039_05_E02 Fab (Fab, V domains shown, also called Fab E02; source: Expi293F, transient expression, purified (anti-CH1 resin, desalted into PBS)) VH: QVQLLESGGGLVQPGRSLRLSCAASGFTFSSYGLHWVRQAPGKGLEWVAVISYDGSNKYYADSVKGRFTISRDNSKNTLYLQMNSLRAEDTAVYYCASTLQQLDAFDIWGQGTLVTVSS VL: NFMLTQPHSVSESPGKTVTISCTRSSGSIASNYVQWYQQRPGTSPTIMIYEDNQRPSGVPDRFSGAIDSSSNSASLTISGLKTEDEADYYCQSYDSSSVVFGGGTKVTVL |  | 0.000872 s⁻¹ | 360000 M⁻¹ s⁻¹
TPL0039_05_B04 IgG1 (LALA + YTE) (antibody, V domains shown, also called B04(LALA + YTE); copies: 2 + 2) VH: EVQLLESGGGVVQPGRSLRLSCAASGFTFSSYGMHWVRQAPGKGLEWVAVISYDGSNKYYADSVKGRFTISRDNSKNTLYLQMNSLRAEDTAVYYCARVGENEAFDIWGQGTMVTVSS VL: NFMLTQPHSVSESPGKTVTISCTRSSGSIARNYVQWYQQRPGSAPTTVIYEDNQRPSGVPDRFSGSIDSSSNSASLTISGLKTEDEADYYCQSYDSSTVVFGGGTKLTVL | 0.0758 nM | 6.53e-05 s⁻¹ | 861000 M⁻¹ s⁻¹
TPL0039_05_F04 IgG1 (LALA + YTE) (antibody, V domains shown, also called F04(LALA + YTE); copies: 2 + 2) VH: QVQLVESGGGVVQPGRSPRLSCAASGFTFSSYGMHWVRQAPGKGLEWVAVISYDGSNKYYADSVKGRFTISRDNSKNTLYLQMNSLRAEDTAVYYCAKDLEYSSSSWGQGTLVTVSS VL: NFMLTQPHSVSESPGKTVTISCTRSSGSIASNYVQWFQQRPGSSPTTVIYEDDQRPSGVPDRFSGSIDSSSNSASLTISGLKTEDEATYFCQSYDSSTVVFGGGTKVTVL | 0.0181 nM | 1.31e-05 s⁻¹ | 723000 M⁻¹ s⁻¹
